According to article PMC3706335, “Biophysical characterization and crystal structure of the Feline Immunodeficiency Virus p15 matrix protein” (Retrovirology, 2013):
Where a chain is given by its changes, count along the chain named.

B1: FIV p15-Δ120, C-terminal-truncated p15 (truncated after Ser120) with C-terminal 6-His tag (domain or fragment)
chain: MGNGQGRDWKMAIKRCSNVAVGVGGKSKKFGEGNFRWAIRMANVSTGREPGDIPETLDQLRLVICDLQERREKFGSSKEIDMAIVTLKVFAVAGLLNMTVSTAAAAENMYSQMGLDTRPS
notes: matrix protein p15 of the Gag polyprotein of Feline Immunodeficiency Virus, Petaluma strain, truncated after Ser120 (lacks the last 14 residues); residues 2 to 120 seen in the crystal; also called truncated FIV p15; not shown: His6, C-terminal, kept
B2: FIV p15-Δ120-R40S (domain or fragment)
chain: B1 chain with R40S
notes: matrix protein p15 of the Gag polyprotein of Feline Immunodeficiency Virus, truncated after Ser120 as m3, with Arg40 mutated to serine; Made from the truncated p15 construct
B3: FIV p15 matrix protein, full-length, with C-terminal 6-His tag (natural protein)
chain: MGNGQGRDWKMAIKRCSNVAVGVGGKSKKFGEGNFRWAIRMANVSTGREPGDIPETLDQLRLVICDLQERREKFGSSKEIDMAIVTLKVFAVAGLLNMTVSTAAAAENMYSQMGLDTRPSMKEAGGKEEGPPQAY
notes: matrix protein p15, the N-terminal subunit of the Gag polyprotein of Feline Immunodeficiency Virus, Petaluma strain (plasmid FIV-34TF10); not myristoylated; also called p15-His; full-length p15; not shown: His6, C-terminal, kept

Key:
[1] = target: the molecule itself; experiment: cross-linking; BS3, room temperature, SDS-PAGE; protein at 6 mg/ml in 50 mM MES pH 6
[2] = target: the molecule itself; experiment: ITC; dilution experiment, dimer to monomers: p15 at 6 mg/ml (375 μM) in 50 mM MES pH 6 injected into buffer alone, 25°C, dimer dissociation model
[3] = target: the molecule itself; experiment: SEC-MALS; 0.2 ml of his-tagged p15 at 6 mg/ml in 50 mM MES pH 6 on Superdex 200 10/30 in 50 mM MES pH 6

| Protein | binding result [1] | Kd [2] [µM] | stoichiometry N [3] |
| --- | --- | --- | --- |
| B1 | binds |  |  |
| B2 | binds |  |  |
| B3 |  | ~10 | 2 |
